Measurements published in the supplement of paper PMC9732359.
± gives the uncertainty stated by the source.

Experiment: protein stability index of a GFP-peptide fusion (yeast GPS) (PSI 1-4); higher = more stable; sorted into four equal gates, so the index is relative within each strain
Summary of the method: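 The protein stability index combines read frequencies across sorting gates, each weighted by its gate number and then summed. To obtain those frequencies, a pooled yeast library of GFP fusions to tiled 17-residue yeast protein peptides, on a plasmid also expressing Cherry, was grown to mid-log phase in leucine-free medium. The cells were sorted into four equal gates by GFP/Cherry ratio before plasmid amplification by PCR and Illumina sequencing.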

Sequence	protein stability index (doa10∆)	protein stability index (pdr5∆)	protein stability index (san1∆)	protein stability index (ubr1∆)
EAAAAEEGEEEEVKEEV [RPS0B]	3.24 ± 0.13	3.48 ± 0.049	3.19 ± 0.069	3.37 ± 0.11
EAELSSTKVENSAIIQN [YIL149C/MLP2]	2.77 ± 0.11	2.87 ± 0.069	2.98 ± 0.056	3.13 ± 0.062
EAGASAELDDCRGVSEN [RPO21]	3.47 ± 0.11	3.54 ± 0.15	3.26 ± 0.08	3.6 ± 0.13
EAGLQLCRQGHNMLNLL [PRP8]	2.24 ± 0.079	2.29 ± 0.12	2.07 ± 0.14	1.99 ± 0.06
EAHNKALNQFKRKLLEH [RPT4]	3.32 ± 0.27	3.14 ± 0.17	3.46 ± 0.12	3.4 ± 0.15
EAIRDPKNSSSPVQIAF [SSN8]	2.55 ± 0.17	2.96 ± 0.15	1.92 ± 0.22	2.98 ± 0.12
EALLVVLVSSVTEANII [RPS12]	–	1.15 ± 0.14	–	1.13 ± 0.11
EALNLLKFFLVDENETV [LIN1]	1.52 ± 0.06	1.52 ± 0.043	1.4 ± 0.12	1.14 ± 0.054
EALVERRRAFKRSQKKH [RPB4]	3.12 ± 0.099	3.2 ± 0.081	3.22 ± 0.062	3.31 ± 0.11
EAMLRENIEVILSNGRM [SNF12]	2.79 ± 0.063	2.82 ± 0.061	2.86 ± 0.046	2.75 ± 0.059
EAMMLKEEGLQQFNLHE [MED1]	2.97 ± 0.16	3.26 ± 0.15	3.17 ± 0.12	2.61 ± 0.12
EAVDDVFQAKMMDMLKQ [RPN11]	2.42 ± 0.053	2.58 ± 0.058	2.02 ± 0.061	2.79 ± 0.065
ECPAIPIFNYIFTEKIY [YJL039C/NUP192]	1.34 ± 0.035	1.46 ± 0.038	1.43 ± 0.071	1.4 ± 0.034
EDARRNPNPSSQRAQVV [RPC37]	3.18 ± 0.073	3.26 ± 0.064	3.02 ± 0.064	3.38 ± 0.054
EDCDLVIMALMLMSKIG [POP5]	1.46 ± 0.038	1.89 ± 0.053	1.81 ± 0.069	2.32 ± 0.037
EDDNNNVEKPSSKPAFN [YLR335W/NUP2]	3.12 ± 0.061	3.2 ± 0.071	3.14 ± 0.049	3.2 ± 0.063
EDGPRPFKVFLDIGLQR [RPL5]	3 ± 0.068	3.17 ± 0.058	3.06 ± 0.052	3.04 ± 0.033
EDGTFSVLYPDELEDDT [RRP43]	3.23 ± 0.086	3.1 ± 0.077	3.16 ± 0.061	3.11 ± 0.063
EDHVEDHRKRKKSKIQL [LIN1]	3.17 ± 0.093	3.25 ± 0.082	3.12 ± 0.059	3.16 ± 0.052
EDISKATHLPKDNVEHL [RPN9]	2.91 ± 0.084	3.13 ± 0.076	3.12 ± 0.091	3.26 ± 0.061
EDKQNIEINEDNSQDDQ [RRI2]	3.44 ± 0.073	3.25 ± 0.066	3.23 ± 0.039	3.23 ± 0.04
EDNAGVIANPKGEMKGS [RPL23A]	1.82 ± 0.18	1.92 ± 0.056	2.28 ± 0.13	1.85 ± 0.059
EDNNDAVNSIMALKFVS [ECM29]	3.15 ± 0.1	3.3 ± 0.077	3.03 ± 0.079	3.32 ± 0.07
EDNYNPKMQWSLQDNSA [RPN4]	3.21 ± 0.11	3.3 ± 0.13	3.22 ± 0.087	3.07 ± 0.068
EDVLSSFYRVEKIKKIN [SSN2]	1.7 ± 0.28	1.13 ± 0.074	1.24 ± 0.28	1.16 ± 0.089
EDYELSPQAVSSFVRQE [PRE1]	2.29 ± 0.14	2.42 ± 0.15	2.31 ± 0.093	2.53 ± 0.083
EEAKSVLPAATKKKSKF [ARP9]	2.1 ± 0.062	2.25 ± 0.043	2.04 ± 0.06	2.31 ± 0.036

Sequence	protein stability index (doa10∆)	protein stability index (pdr5∆)	protein stability index (san1∆)	protein stability index (ubr1∆)
EECGRTIHRSFTICLND [CSN12]	2.93 ± 0.064	2.87 ± 0.065	2.84 ± 0.055	2.86 ± 0.044
EEEESILIAMQPEDLEP [RPB2]	–	–	2.33 ± 0.13	–
EEELFEVTKEEDIIANY [RRP43]	3.17 ± 0.088	3.08 ± 0.073	3.19 ± 0.11	3.43 ± 0.077
EEELWNSPSKGNSERPS [YIL149C/MLP2]	3.11 ± 0.1	3.38 ± 0.083	3.24 ± 0.061	3.27 ± 0.095
EEERRKKRESGVEEEEE [SNF2]	3.49 ± 0.079	3.35 ± 0.1	3.38 ± 0.11	3.46 ± 0.047
EEIRSQIDHFKSMLSKP [SWI3]	1.65 ± 0.045	2.32 ± 0.065	2.67 ± 0.053	2.35 ± 0.04
EEIVVVASADYESQTFS [PRP8]	3.14 ± 0.069	3.5 ± 0.095	3.24 ± 0.054	3.3 ± 0.057
EEKEKEQSKEVGDVVGG [BRN1]	3.29 ± 0.091	3.52 ± 0.1	3.29 ± 0.067	3.34 ± 0.075
EEKKKEHEEKEKERETN [RPN2]	3.3 ± 0.23	3.37 ± 0.1	3.38 ± 0.15	3.44 ± 0.24
EEKSNEVKTPKIPLFTF [SIR4]	2.82 ± 0.061	2.94 ± 0.065	2.57 ± 0.048	2.79 ± 0.047
EEKVIERAAQKLRLDQL [ISW2]	2.81 ± 0.15	2.89 ± 0.14	2.87 ± 0.12	2.68 ± 0.11
EERMGQIENLNEVCLEK [SMC4]	3.48 ± 0.28	–	2.47 ± 0.27	–
EESLTVLNCLRTMYFIL [YJR042W/NUP85]	2.54 ± 0.11	1.83 ± 0.081	1.38 ± 0.098	1.57 ± 0.068
EEVEDQINPTRETNDDI [SNF2]	2.25 ± 0.079	1.74 ± 0.082	1.45 ± 0.11	1.58 ± 0.062
EEVQQAQTEIKLFNKWS [RPS5]	3.17 ± 0.1	3.21 ± 0.096	3.25 ± 0.076	3.27 ± 0.075
EEYARRLAEFKRRKLDL [SMC4]	3.13 ± 0.13	3.46 ± 0.12	2.72 ± 0.1	3.31 ± 0.08
EFEIPVSFNGFKLPKKF [BRR2]	2.58 ± 0.1	2.94 ± 0.12	2.61 ± 0.12	2.91 ± 0.094
EFENKFQNSYKPALKVS [YMR129W/POM152]	–	3.11 ± 0.22	3.04 ± 0.2	–
EFETPTFLVSNDDEVSQ [RPN14]	2.69 ± 0.092	2.89 ± 0.084	2.72 ± 0.079	2.77 ± 0.13
EFFVQVLTHESLHRQQQ [DLS1]	2.99 ± 0.19	2.91 ± 0.14	2.81 ± 0.12	2.92 ± 0.13
EFKIEQNNEQNPIDPFN [YDL116W/NUP84]	2.96 ± 0.087	3.11 ± 0.087	3.05 ± 0.067	3.23 ± 0.061
EFNFTNLQAKPLVGKPK [YAR002W/NUP60]	2.1 ± 0.06	2.35 ± 0.055	2.27 ± 0.077	2.25 ± 0.042
EFNSIDRVIFRVPIRSE [PRP8]	3.32 ± 0.089	3.33 ± 0.097	3.21 ± 0.13	3.11 ± 0.046
EFQPSGNVTELYGTAIG [PRE5]	2.15 ± 0.069	2.8 ± 0.07	1.98 ± 0.067	1.57 ± 0.041
EFSEHTFVERLPNETIN [DIS3]	3.34 ± 0.16	2.47 ± 0.18	3.36 ± 0.11	3.23 ± 0.12
EGHLAEIRAKEYKTSSD [SRB2]	3.22 ± 0.11	3.29 ± 0.081	3.18 ± 0.051	3.26 ± 0.078
